The values below come from PMC4866497.

Data set [1] has as its target EGFR domain 3 - Fc, wild-type CH3. Put plainly: FRET or BRET. For orientation: In BRET a luciferase serves as donor, and the signal depends on an acceptor being close.
Data set [2] relates to MetMab full heavy chain with K409D K392D, with MetMab light chain. The data set is described as follows: SEC. On the technique in general: Size exclusion chromatography separates by hydrodynamic size, large species first.
The test system is the same in data set [3]. Put plainly: SEC. The source holds these as a separate data set.
Data set [4] has as its system MetMab full heavy chain with Y349S K370Y T366M K409V, with MetMab light chain. Put plainly: SEC.
The test system is the same in data set [5]. The data set is described as follows: SEC. The source holds these as a separate data set.
Data set [6] has as its system MetMab full heavy chain with Y349S K370Y T366V K409V, with MetMab light chain. Put plainly: SEC.
Data set [7] has the same test system. Put plainly: SEC. This is another data set of the same source.
Data set [8] deals with MetMab full heavy chain with D399K E356K, with MetMab light chain. Put plainly: SEC.
For data set [9] the test system is unchanged. The data set is described as follows: SEC. This is another data set of the same source.
Data set [10] has as its system MetMab full heavy chain with T366W, with MetMab light chain. The data set is described as follows: SEC.
Data set [11] has the same test system. The data set is described as follows: SEC. The source holds these as a separate data set.
For data set [12], the system named is MetMab full heavy chain with E357D S364R Y407A, with MetMab light chain. Put plainly: SEC.
Data set [13] relates to MetMab full heavy chain with E356G E357D S364Q Y407A, with MetMab light chain. The data set is described as follows: SEC.
Data set [14] relates to MetMab full heavy chain with E357D S364R Y407A, with MetMab light chain. The data set is described as follows: SEC. This is another data set of the same source.
The test system of data set [15] is MetMab full heavy chain with E356G E357D S364Q Y407A, with MetMab light chain. The data set is described as follows: SEC. This is another data set of the same source.
For data set [16], the system named is MetMab full heavy chain with E357D S364Q Y407A, with MetMab light chain. The data set is described as follows: SEC.
For data set [17] the test system is unchanged. Put plainly: SEC. The source holds these as a separate data set.
The test system of data set [18] is MetMab full heavy chain with wild-type CH3, with MetMab light chain [IgG part: P01857]. The data set is described as follows: SEC.
Data set [19] shares this test system. Put plainly: SEC. The source holds these as a separate data set.
In a further data set the target is IgG1 Fc, wild-type CH3. Put plainly: SEC.
Data set [20] addresses MetMab full heavy chain with T350V L351Y F405A Y407V, with MetMab light chain. The data set is described as follows: SEC.
For data set [21], the target named is MetMab full heavy chain with T350V T366L K392L T394W, with MetMab light chain. Put plainly: SEC.
Data set [22] concerns the target MetMab full heavy chain with T366V K409V, with MetMab light chain. Put plainly: SEC.
For data set [23] the target is unchanged. Put plainly: SEC. The source holds these as a separate data set.
For data set [24], the target named is MetMab full heavy chain with wild-type CH3, with MetMab light chain [IgG part: P01857]. Put plainly: SEC. The source holds these as a separate data set.
Data set [25] relates to EGFR domain 3 - Fc with K409D K392D. The data set is described as follows: FRET or BRET.
Data set [26] relates to EGFR domain 3 - Fc with Y349S K370Y T366M K409V. Put plainly: FRET or BRET.
The test system of data set [27] is EGFR domain 3 - Fc with Y349S K370Y T366V K409V. The data set is described as follows: FRET or BRET.
Data set [28] deals with EGFR domain 3 - Fc with T366W. The data set is described as follows: FRET or BRET.
Data set [29] concerns the target VEGFR1 domain 3 - Fc, wild-type CH3. Put plainly: FRET or BRET.

Read-outs that look alike come from different tables or passages of the source.

On to “EGFR domain 3 - Fc, wild-type CH3 (Fc fusion)”, for which, in data set [1], the % AA homodimer (co-expressed with m42) stood at 24.2%.

In the case of IgG1 Fc with D399K E356K, the % AB heterodimer in [2] turned out to be 91.7%; in data set [3], 37.5%.

For IgG1 Fc with E356G E357D S364Q Y407A, the figures for the % AB heterodimer in [4] and in data set [5] were 83.8% and 23.6%, respectively.

On to IgG1 Fc with E357D S364Q Y407A, for which the % AB heterodimer in data set [6] is 84.9%; in data set [7], 11.7%.

Regarding IgG1 Fc with E357D S364R Y407A, the figures for the % AB heterodimer in [4] and in [5] were 83.5% and 34.7%, respectively.

Regarding IgG1 Fc with K409D K392D, the % AB heterodimer was 93.6% in [8] and 29.4% in data set [9].

Turning to IgG1 Fc with T366S L358V Y407A, the % AB heterodimer in data set [10] amounted to 92.4%; in data set [11], 35%.

For the substance IgG1 Fc with Y349S K370Y T366M K409V, the % AB heterodimer in [12] was 85.5%; in data set [13], 94.2%; in [14], 29.9%; in data set [15] it was 31.8%.

IgG1 Fc with Y349S K370Y T366V K409V: the % AB heterodimer was 92.5% in data set [16] and 4.7% in data set [17].

Turning to IgG1 Fc, wild-type CH3, the values for the % AB heterodimer in data set [18] and in data set [19] were 51.3% and 27.4%, respectively.

In the case of “IgG1 Fc, wild-type CH3 (domain or fragment)”, in the data set with IgG1 Fc, wild-type CH3, the % BB homodimer (co-expressed with m1) came out at 15.9%.

Consider “MetMab full heavy chain with D399K E356K, with MetMab light chain (complex)”, for which, in [9], the % AA homodimer (co-expressed with m18) came to 11.3%.

As to “MetMab full heavy chain with K409D K392D, with MetMab light chain (complex)”, the % AA homodimer (co-expressed with m19) in data set [3] is 19.9%.

In the case of “MetMab full heavy chain with T350V L351Y F405A Y407V, with MetMab light chain (complex)”, in [20], the % AA homodimer (co-expressed with m22) is 9%.

In [21], “MetMab full heavy chain with T350V T366L K392L T394W, with MetMab light chain (complex)” came in with a % AA homodimer (co-expressed with m23) of 5.1%.

Regarding “MetMab full heavy chain with T366V K409V, with MetMab light chain (complex)”, in data set [22], the % AA homodimer (co-expressed with m24) was 4.1% and the % AA long dimer (co-expressed with m24) worked out at 3.8%. In data set [23], this substance yielded a % AA homodimer (co-expressed with m24) of 28.6% and a % AA long dimer (co-expressed with m24) of 24.1%.

Substance “MetMab full heavy chain with T366W, with MetMab light chain (complex)” returned a % AA homodimer (co-expressed with m21) in data set [11] of 15.7%.

Turning to “MetMab full heavy chain with wild-type CH3, with MetMab light chain (from UniProt P01857 1-399) (complex)”, the % AA homodimer (co-expressed with m17) in data set [24] amounted to 31.3%; in data set [19], 65%.

On to VEGFR1 domain 3 - Fc with D399K E356K, for which the % AB heterodimer in data set [25] was determined as 96.2%.

“VEGFR1 domain 3 - Fc with E356G E357D S364Q Y407A”: the % AB heterodimer in data set [26] worked out at 93.9%.

With “VEGFR1 domain 3 - Fc with E357D S364Q Y407A”, the % AB heterodimer in data set [27] came to 93.3%.

The substance “VEGFR1 domain 3 - Fc with T366S L358V Y407A” returned a % AB heterodimer in data set [28] of 96.2%.

For VEGFR1 domain 3 - Fc, wild-type CH3, in [1], the % AB heterodimer came to 61.2%.

As to “VEGFR1 domain 3 - Fc, wild-type CH3 (Fc fusion)”, the % BB homodimer (co-expressed with m35) in data set [29] came out at 14.6%.
